Measurements from patent US20260062487A1 (GRITSTONE BIO, published 2026).
Where two headings read alike, the source gives them in different places.

Legend:
[1] = biological target: HLA-PEPTIDE target A*01:01_… (G2) on cells (human); assay: cell-based or functional assay
[2] = biological target: T1, HLA-PEPTIDE target A*01:01_… (G2) on cells (human); assay: IP-MS, NCI-H1703 lysate, Rep1
T1 construct: whole, on cells; also recovered from cell lysates in the IP-MS experiment; also called G2 pHLA; G2 target
Description: (§1) 2×10⁸ cells expressing A*01:01/CT83 (NCI-H1703, A375±CT83) were re-suspended in 5 ml lysis buffer (1% CHAPS, 150 mM sodium chloride, 20 mM Tris pH 8) in the presence of phosphatase, and protease inhibitors. The cells were homogenized by sonication, rotated at 4° C. for 1 hr, and spun at 21,000×g for 30 min. to pellet cell debris.
(§2) After immunoprecipitation, the IP beads were isolated using filter plates, then washed to remove non-specific binding using Tris pH 8 buffers with increasing levels of NaCl. The HLA/peptide complex was eluted from the beads using 2N acetic acid. The protein components were removed from the peptides using C18 fractionation. The resultant peptides were taken to dryness by SpeedVac evaporation and stored at −20° C. prior to MS analysis.

[3] = biological target: T2, off-target HLA-A*01:01_… (PTS) on cells (human); assay: IP-MS, NCI-H1703 lysate, Rep1
T2 construct: whole, on cells; also called validated OTLA; Control peptide-3
Description: as §1, §2

[4] = biological target: T3, off-target HLA-A*01:01_… (ICE1) on cells (human); assay: IP-MS, NCI-H1703 lysate, Rep1
T3 construct: whole, on cells; also called … (IC1); validated OTLA
Description: as §1, §2

[5] = biological target: T4, HLA-A*01:01 with … (ERGIC3) from cells (human); assay: IP-MS, NCI-H1703 lysate, Rep1
T4 construct: whole, on cells
Description: as §1, §2

[6] = biological target: T1, HLA-PEPTIDE target A*01:01_… (G2) on …; assay: IP-MS, NCI-H1703 lysate, Rep2
Description: as §1, §2

[7] = biological target: T2, off-target HLA-A*01:01_… (PTS) on cells; assay: IP-MS, NCI-H1703 lysate, Rep2
Description: as §1, §2

[8] = biological target: T3, off-target HLA-A*01:01_… (ICE1) on cells; assay: IP-MS, NCI-H1703 lysate, Rep2
Description: as §1, §2

[9] = biological target: T4, HLA-A*01:01 with … (ERGIC3) from cells; assay: IP-MS, NCI-H1703 lysate, Rep2
Description: as §1, §2

[10] = biological target: T5, G5 pHLA (HLA-B*35:01 with …) on cells (human); assay: flow cytometry, peptide-pulsed cells
T5 construct: whole, on cells
Description: (§3) HLA-transduced K562 cells were pulsed the night before with 50 μM of peptide (Genscript) in IDMEM containing 1% FBS in 6 well plates and incubated under standard tissue culture conditions. Cells were harvested, washed in PBS, and stained with eBioscience Fixable Viability Dye eFluor 450 for 15 minutes at room temperature. […] After another wash, PE-conjugated goat anti-human IgG secondary antibody (Jackson ImmunoResearch) was added at 1:100. After incubating at 4° C. for 45 minutes and washing in PBS+2% FBS, cells were resuspended in PBS+2% FBS and analyzed by flow cytometry. Flow cytometric analysis was performed on the Attune NxT Flow Cytometer (ThermoFisher) using the Attune NxT Software. Data was analyzed using FlowJo.

[11] = biological target: T1, HLA-PEPTIDE target A*01:01_… (G2) on …; assay: flow cytometry, K562-HLA cells pulsed with peptide
[12] = biological target: T6, A*01:01 with … (V or E 1) on pulsed K562-HLA cells (human); assay: flow cytometry, K562-HLA cells pulsed with peptide
T6 construct: whole, on cells

[13] = biological target: T7, A*01:01 with … (V or E 2) on pulsed K562-HLA cells (human); assay: flow cytometry, K562-HLA cells pulsed with peptide
T7 construct: whole, on cells

[14] = biological target: T8, A*01:01 with … (V or E 3) on pulsed K562-HLA cells (human); assay: flow cytometry, K562-HLA cells pulsed with peptide
T8 construct: whole, on cells

[15] = biological target: T9, A*01:01 with … (V or E 4) on pulsed K562-HLA cells (human); assay: flow cytometry, K562-HLA cells pulsed with peptide
T9 construct: whole, on cells

[16] = biological target: T10, A*01:01 with … (V or E 5) on pulsed K562-HLA cells (human); assay: flow cytometry, K562-HLA cells pulsed with peptide
T10 construct: whole, on cells

[17] = biological target: T11, A*01:01 with … (V or E 6) on pulsed K562-HLA cells (human); assay: flow cytometry, K562-HLA cells pulsed with peptide
T11 construct: whole, on cells

CD3 on CD3+ Jurkat cells [18] = biological target: T12, CD3 on CD3+ Jurkat cells (human, UniProt P07766 23-207); assay: flow cytometry, anti IgG PE, CD3+ Jurkat cells
T12 construct: whole, on cells
T12 sequence (P07766 23-207): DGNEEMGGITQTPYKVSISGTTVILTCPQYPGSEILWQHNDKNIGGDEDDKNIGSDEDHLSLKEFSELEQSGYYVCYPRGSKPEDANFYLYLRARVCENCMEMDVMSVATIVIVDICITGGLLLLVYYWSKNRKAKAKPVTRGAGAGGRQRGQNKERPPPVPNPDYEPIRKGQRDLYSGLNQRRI
Description: Increasing concentrations of the antibodies were incubated with CD3(+) and CD9(−) Jurkat cells. Binding was determined by flow cytometery using an anti IgG-PE antibody for detection.

[19] = biological target: T1, HLA-PEPTIDE target A*01:01_… (G2) on …; assay: flow cytometry, anti-IgG PE, peptide-pulsed K562 cells
Description: as §3

[20] = biological target: T4, HLA-A*01:01 with … (ERGIC3) from cells; assay: IP-MS, K562-A*01:01 lysate (ND: Not detected; W6/32 recovers the peptide)
Description: as §1, §2

[21] = biological target: T1, HLA-PEPTIDE target A*01:01_… (G2) on …; assay: flow cytometry, anti IgG PE, A375 9mer cells (1e6 copies per cell)
Description: (§4) A375 transduced with luciferase alone served as the negative control. […] Binding was determined by flow cytometery using an anti IgG-PE antibody for detection.

[22] = biological target: T1, HLA-PEPTIDE target A*01:01_… (G2) on …; assay: flow cytometry, anti IgG PE, A375 9mer cells (1e6 copies of G2 pHLA per cell)
[23] = biological target: T1, HLA-PEPTIDE target A*01:01_… (G2) on …; assay: flow cytometry, anti-IgG PE, K562-A01:01 cells pulsed with peptide (20,000 to 40,000 copies/cell)
Description: as §3

[24] = biological target: T13, off-target HLA-A*01:01_… (KDM7A) on cells (human); assay: as above
T13 construct: whole, on cells; also called validated OTLA; Control peptide-4
Description: as §3

[25] = biological target: T14, refolded A*01:01/b2m complex with the ROBO1 peptide … (human, UniProt P61769 21-119); assay: BLI (Octet), refolded pHLA
T14 construct: also called ROBO1 pHLA complex

CD3 on CD3+ Jurkat cells [26] = biological target: T12, CD3 on CD3+ Jurkat cells; assay: flow cytometry, anti IgG PE, CD3+ Jurkat cells; remark: listed apart in the source
[27] = biological target: T1, HLA-PEPTIDE target A*01:01_… (G2) on …; assay: flow cytometry, anti IgG PE, A375 9mer cells (1e6 copies per cell); remark: listed apart in the source
Description: as §4

[28] = biological target: T15, biotinylated refolded G2-pHLA (A*01:01/b2m/…) (human, biotinylated at the C-terminal AviTag); assay: Octet biolayer interferometry, 120 s association and 120 s dissociation
T15 construct: Soluble complex caught on streptavidin sensors or MSD plates; also called G2-peptide A*01:01/b2m complex; WT

[29] = biological target: T14, refolded A*01:01/b2m complex with the …; assay: as above

B1: 41-E07 hOKT3a diabody (Format 41 31E07-CD3 bispecific antibody) (bispecific antibody, human IgG1, kappa)
chain: QVQLVQSGAEVKKPGASVKVSCKASGFTFTNYLIHWVRQAPGQGLEWMGWINPNSGGTNYAQRLQGRVTMTRDTSTSTVYMELSSLRSEDTAVYYCARDYGAGNDYWGQGTLVTVSSGGGGSGGGGSDIQMTQSPSSLSASVGDRVTITCRASQEIRRWLAWYQQKPGKAPKLLIYAASNLQSGVPSRFSGSGSGTDFTLTISSLQPEDFATYYCQQSYSTPYTFGQGTKLEIKGGGGSEPKSSDKTHTCPPCPAPEFEGGPSVFLFPPKPKDTLMISRTPEVTCVVVDVSHEDPEVKFNWYVDGVEVHNAKTKPREEQYNSTYRVVSVLTVLHQDWLNGKEYKCKVSNKALPASIEKTISKAKGQPREPQVYTLPPCREEMTKNQVSLWCLVKGFYPSDIAVEWESNGQPENNYKTTPPVLDSDGSFFLYSKLTVDKSRWQQGNVFSCSVMHEALHNHYTQKSLSLSPGK
heavy: QVQLVQSGAEVKKPGASVKVSCKASGFTFTNYLIHWVRQAPGQGLEWMGWINPNSGGTNYAQRLQGRVTMTRDTSTSTVYMELSSLRSEDTAVYYCARDYGAGNDYWGQGTLVTVSSGGGGSGGGGSDIQMTQSPSSLSASVGDRVTITCRASQEIRRWLAWYQQKPGKAPKLLIYAASNLQSGVPSRFSGSGSGTDFTLTISSLQPEDFATYYCQQSYSTPYTFGQGTKLEIKGGGGSGGGGSQVQLVQSGAEVKKPGASVKVSCKASGYTFTRYTMHWVRQAPGQGLEWMGYINPSRGYTNYNQKFKDRVTLTTDKSSSTAYMELSSLRSEDTAVYYCARYYDDHYSLDYWGQGTLVTVSSASTKGPSVFPLAPSSKSTSGGTAALGCLVKDYFPEPVTVSWNSGALTSGVHTFPAVLQSSGLYSLSSVVTVPSSSLGTQTYICNVNHKPSNTKVDKRVEPKSCDKTHTCPPCPAPEFEGGPSVFLFPPKPKDTLMISRTPEVTCVVVDVSHEDPEVKFNWYVDGVEVHNAKTKPREEQYNSTYRVVSVLTVLHQDWLNGKEYKCKVSNKALPASIEKTISKAKGQPREPQVCTLPPSREEMTKNQVSLSCAVKGFYPSDIAVEWESNGQPENNYKTTPPVLDSDGSFFLVSKLTVDKSRWQQGNVFSCSVMHEALHNRFTQKSLSLSPGK
light: DIQMTQSPSSLSASVGDRVTITCSASSSVSYMNWYQQKPGKAPKRLIYDTSKLASGVPSRFSGSGSGTDFTLTISSLQPEDFATYYCQQWSSNPFTFGQGTKLEIKRTVAAPSVFIFPPSDEQLKSGTASVVCLLNNFYPREAKVQWKVDNALQSGNSQESVTEQDSKDSTYSLSSTLTLSKADYEKHKVYACEVTHQGLSSPVTKSFNRGEC
notes: also called E07-CD3 diabody; 41-31E07-hOKT3a
[1]
  EC50 (ug/ml), luciferase-cytotoxicity assay with human T cells, A375-CT83 cells: 0.00017 µg/mL
  EC50 (ug/ml), luciferase-cytotoxicity assay with human T cells, NCI-H820 cells: 0.077 µg/mL
  EC50 (ug/ml), luciferase-cytotoxicity assay with human T cells, NCI-H1703 cells: 0.0025 µg/mL
[2]
  copies per cell of the peptide recovered by immunoprecipitation: 2960 copies per cell
[3]
  copies per cell of the peptide recovered by immunoprecipitation: 40 copies per cell
[4]
  copies per cell of the peptide recovered by immunoprecipitation: 33 copies per cell
[5]
  copies per cell of the peptide recovered by immunoprecipitation: 34 copies per cell
[6]
  copies per cell of the peptide recovered by immunoprecipitation: 2960 copies per cell
[7]
  copies per cell of the peptide recovered by immunoprecipitation: 42 copies per cell
[8]
  copies per cell of the peptide recovered by immunoprecipitation: 32 copies per cell
[9]
  copies per cell of the peptide recovered by immunoprecipitation: 37 copies per cell
[10]
  log difference in EC50 against the G2 peptide [..]: 3 log
[11]
  Max Binding: 5560
[12]
  Max Binding: 1880
[13]
  Max Binding: 4680
[14]
  Max Binding: 5680
[15]
  Max Binding: 1560
[16]
  Max Binding: 2630
[17]
  Max Binding: 1400
CD3 on CD3+ Jurkat cells [18]
  EC50 (read off the curve): ~20 nM
[19]
  EC50 (read off the curve): ~0.06 µg/mL
[20]
  binding result: no binding
[21]
  EC50 (read off the curve): ~2 nM
[22]
  EC50 (read off the curve): ~3 nM
[23]
  EC50 (read off the curve): ~0.3 µg/mL
[24]
  binding result: no binding (tested: 100 ug/ml)

B2: 41-E07 UCHT1v9 (Format 41 31E07-CD3 bispecific antibody) (bispecific antibody, human IgG1, kappa)
chain: QVQLVQSGAEVKKPGASVKVSCKASGFTFTNYLIHWVRQAPGQGLEWMGWINPNSGGTNYAQRLQGRVTMTRDTSTSTVYMELSSLRSEDTAVYYCARDYGAGNDYWGQGTLVTVSSGGGGSGGGGSDIQMTQSPSSLSASVGDRVTITCRASQEIRRWLAWYQQKPGKAPKLLIYAASNLQSGVPSRFSGSGSGTDFTLTISSLQPEDFATYYCQQSYSTPYTFGQGTKLEIKGGGGSEPKSSDKTHTCPPCPAPEFEGGPSVFLFPPKPKDTLMISRTPEVTCVVVDVSHEDPEVKFNWYVDGVEVHNAKTKPREEQYNSTYRVVSVLTVLHQDWLNGKEYKCKVSNKALPASIEKTISKAKGQPREPQVYTLPPCREEMTKNQVSLWCLVKGFYPSDIAVEWESNGQPENNYKTTPPVLDSDGSFFLYSKLTVDKSRWQQGNVFSCSVMHEALHNHYTQKSLSLSPGK
heavy: QVQLVQSGAEVKKPGASVKVSCKASGFTFTNYLIHWVRQAPGQGLEWMGWINPNSGGTNYAQRLQGRVTMTRDTSTSTVYMELSSLRSEDTAVYYCARDYGAGNDYWGQGTLVTVSSGGGGSGGGGSDIQMTQSPSSLSASVGDRVTITCRASQEIRRWLAWYQQKPGKAPKLLIYAASNLQSGVPSRFSGSGSGTDFTLTISSLQPEDFATYYCQQSYSTPYTFGQGTKLEIKGGGGSGGGGSEVQLVESGGGLVQPGGSLRLSCAASGYSFTGYTMNWVRQAPGKGLEWVALINPYKGVSTYNQKFKDRFTISVDKSKNTAYLQMNSLRAEDTAVYYCARSGYYGDSDWYFDVWGQGTLVTVSSASTKGPSVFPLAPSSKSTSGGTAALGCLVKDYFPEPVTVSWNSGALTSGVHTFPAVLQSSGLYSLSSVVTVPSSSLGTQTYICNVNHKPSNTKVDKRVEPKSCDKTHTCPPCPAPEFEGGPSVFLFPPKPKDTLMISRTPEVTCVVVDVSHEDPEVKFNWYVDGVEVHNAKTKPREEQYNSTYRVVSVLTVLHQDWLNGKEYKCKVSNKALPASIEKTISKAKGQPREPQVCTLPPSREEMTKNQVSLSCAVKGFYPSDIAVEWESNGQPENNYKTTPPVLDSDGSFFLVSKLTVDKSRWQQGNVFSCSVMHEALHNRFTQKSLSLSPGK
light: not shown
notes: also called 41-31E07-UCHT1v9; 41-E07 hUCHT1v9
[25]
  times less binding affinity than to the G2-peptide A*01:01/b2m complex: 5000 fold
CD3 on CD3+ Jurkat cells [18]
  EC50 (read off the curve): ~3 nM
CD3 on CD3+ Jurkat cells [26]
  EC50 (read off the curve): ~2 nM
[21]
  EC50 (read off the curve): ~2 nM
[27]
  EC50 (read off the curve): ~2 nM
[28]
  Kd: < 0.001 nM
  koff: < 1e-07 s⁻¹
  kon: 566000 M⁻¹ s⁻¹
[29]
  Kd: 5.52 nM
  koff: 0.00557 s⁻¹
  kon: 1.01e+06 M⁻¹ s⁻¹
